Laboratory results from patent US20200325187A1 (Genentech, published 2020).

target: T1, hVEGF-A (8-109) (human, UniProt P15692 214-315); assay: spot phage ELISA
T1 sequence (looked up): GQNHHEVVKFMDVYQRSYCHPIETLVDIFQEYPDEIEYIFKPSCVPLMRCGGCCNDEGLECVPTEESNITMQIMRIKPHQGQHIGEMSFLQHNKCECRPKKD

Binder | binding result
GCDVLQPYWGCGPDIDCLSNCICHWYNSCGRL (designed binder) [63.12.12.M5L.2x21] | binds
GCDVLQPYWGCGPDIDCLSNCICHWYNSCGPT (designed binder) [63.12.12.M5L.2x30] | binds
GCDVLQPYWGCGPDIDCLSNCICHWYNSCGEQ (designed binder) [63.12.12.M5L.2x12] | binds
GCDVLQPYWGCGPDIDCLSNCICHWYNSCGRT (designed binder) [63.12.12.M5L.2x2] | binds
GCDVLQPYWGCGPDIDCLSNCICHWYNSCGDE (designed binder) [63.12.12.M5L.2x25] | binds
GCDVLQPYWGCGPDIDCLSNCICHWYNSCGWK (designed binder) [63.12.12.M5L.2x77] | binds
GCDVLQPYWGCGPDIDCLSNCICHWYNSCGPL (designed binder) [63.12.12.M5L.2x48] | binds
GCDVLQPYWGCGPDIDCLSNCICHWYNSCGSL (designed binder) [63.12.12.M5L.2x29] | binds
GCDVLQPYWGCGPDIDCLSNCICHWYNSCGQF (designed binder) [63.12.12.M5L.2x69] | binds
GCNIMLPFWGCGRDFECLAGCVCQYYQSCGWDY (designed binder) [9.54.90-3x9] | binds
GCNIMLPFWGCGRDFECLAGCVCQYYQSCGWPH (designed binder) [9.54.90-3x13] | binds
GCNIMLPFWGCGRDFECLAGCVCQYYQSCGPHQ (designed binder) [9.54.90-3x33] | binds
GCNIMLPFWGCGRDFECLAGCVCQYYQSCGYLS (designed binder) [9.54.90-3x88] | binds
GCNIMLPFWGCGRDFECLAGCVCQYYQSCGEHK (designed binder) [9.54.90-3x42] | binds
GCNIMLPFWGCGRDFECLAGCVCQYYQSCGDLV (designed binder) [9.54.90-3x91] | binds
GCNIMLPFWGCGRDFECLAGCVCQYYQSCGTFQ (designed binder) [9.54.90-3x10] | binds

target: T1, hVEGF-A (8-109); assay: spot phage ELISA; remark: another data set of the same source
Protocol: After four rounds of binding selection, individual phage clones were picked and inoculated into 450 μl 2YT media containing 50 µg/ml Carbenecillin and M13-KO7 helper phage in 96-well blocks, which were grown at 37° C. overnight. […] The plates were washed and bound phage was detected with anti-M13-HRP followed by TMB substrate. In these assays, phage binding to BSA alone was tested in parallel to assess background binding. […] Positive clones were subjected to DNA sequence analysis.

Binder | ELISA | S/N vs BSA
GCQLMHPFWGCKQDSDCLAGCVCHWYRSCG (designed binder) [VEGF_CKP8] | 3.9 | 59.4
GCNIMLPFWGCQADYACLAGCVCQYYQSCG (designed binder) [VEGF_CKP9.54.14] | 2.5 | 23.5
GCNIMLPFWGCSRDFDCLAGCVCQYYQSCG (designed binder) [VEGF_CKP9.54.44] | 2.4 | 34.4
GCNIMLPFWGCGTNFLCLAGCVCQYYQSCG (designed binder) [VEGF_CKP9.54.31] | 2.3 | 32.5
GCNIMLPFWGCGPELNCLAGCVCQYYQSCG (designed binder) [VEGF_CKP9.54.12] | 2.4 | 38.8
GCNIMLPFWGCGVDYLCLAGCVCQYYQSCG (designed binder) [VEGF_CKP9.54.16] | 2.4 | 30.8
GCNIMLPFWGCNRDFLCLAGCVCQYYQSCG (designed binder) [VEGF_CKP9.54.48] | 2.5 | 34.9
